Test results: patent US20200239555A1 (STATEN BIOTECHNOLOGY B V, published 2020)

Assays:
[1] = biological target: T1, native human ApoC3 (human, UniProt P02656 21-99); test: SPR, IgG1 over ApoC3 on CM5 chip, pH 5.5
T1 construct: also called nhuApoC3; native huApoC3
Method: (§1) Based on the results in Example 1, test scFv-Fc antibodies were generated as human IgG₁ antibodies. An SPR-based assay was employed, in which human ApoC3 protein was immobilized on a CM5 chip, and the binding kinetics of test antibodies to the coated chip were measured at both pH 7.4 and pH 5.5. Briefly, a solution of 50 μg/ml of native human ApoC3 in 10 mM acetate buffer at pH 4.5 was prepared and injected until the surface density reached approximately 500 RU. 60 μl of each test antibody was diluted in HBS-EP buffer (GE, cat. nr. BR-1008-26; 0.010 M HEPES, 0.150M NaCl, 3 mM EDTA, 0.05% (v/v) surfactant P20, pH 7.4), and was injected at a concentration as described in Table 9. The test antibodies were passed through the flow cells at a flow rate of 30 μl/min, followed by an off-rate wash at pH 7.4 or pH 5.5 for 5 min. The resulting sensorgrams were analyzed using the BIAevaluation 4.1 software applying the Langmuir 1:1 binding model to derive binding kinetics. Data was zero adjusted and the reference cell sensorgrams were subtracted.

[2] = biological target: T1, native human ApoC3; test: SPR, IgG1 over ApoC3 on CM5 chip, pH 7.4
Method: as §1

[3] = biological target: T2, biotinylated native human ApoC3 (human, UniProt P02656 21-99, biotinylated (site not stated)); test: SPR, IgG1 over biotinylated ApoC3 on SA chip
T2 construct: also called biotinylated human ApoC3
T2 sequence (P02656 21-99): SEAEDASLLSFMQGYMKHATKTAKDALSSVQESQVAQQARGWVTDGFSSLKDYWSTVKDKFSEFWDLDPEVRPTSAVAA
Method: (§2) Biotinylated native human ApoC3 was captured on a streptavidin coated SPR chip (GE Healthcare, cat. nr. BR100032) at pH 7.4, in accordance with the method provided by Biacore, by injection of 20 μl 10 μg/ml biotinylated native human ApoC3 reaching the surface density of approximately 500 RU. 60 μL of test antibody in 1-50 nM range diluted in HBS-EP buffer (GE, cat # BR-1008-26; 0.010 M HEPES, 0.150M NaCl, 3 mM EDTA, 0.05% (v/v) surfactant P20, pH 7.4) was injected and passed through the flow cells at a flow rate of 30 μl/min, followed by an off-rate wash at pH7.4 for 5 min. After the dissociation, the flow cell surfaces were regenerated by injecting 10 μl of 10 mM NaOH/1 M NaCl and 10 μl of 10 mM glycine at pH1.5. The assay was repeated at pH5.5 using the same general protocol, where the running and sample dilution buffer was replaced by a HBS-EP buffer supplemented with citrate buffer to 10 mM final concentration and pH adjusted to 5.5.
(§3) The resulting sensorgrams were analyzed using the BIAevaluation 4.1 software using Langmuir 1:1 binding model to derive binding kinetics. Data was zero adjusted and the reference cell sensorgrams were subtracted. Sensorgrams were double referenced to no-analyte blank assay. Fitted parameters were considered not applicable if off-rate values were below the equipment's detection limit of kd: 1×10⁻⁶ 1/s.

[4] = biological target: T1, native human ApoC3; test: SPR, ApoC3 over captured IgG1, pH 7.4
Method: (§4) An inverted SPR assay was designed in which a test antibody was captured on an SPR chip, human ApoC3 protein was injected, and binding of ApoC3 to the antibody was measured. […] The immobilization was performed in accordance with the method provided by Biacore/GE using the NHS/EDC kit (Biacore AB, Cat.nr. BR-1000-50): after activation of the chip, a solution of 30 μg/ml of anti-human Fcγ antibody in 10 mM acetate buffer with pH of 5.0 was prepared and injected until the surface density reached approximately 10000 RU. The analytical cycle comprised the following steps:
(§5) The resulting sensorgrams were analyzed using the BIAevaluation 4.1 software using Langmuir 1:1 binding model to derive binding kinetics. Data was zero adjusted, the reference cell sensorgrams were subtracted and the no analyte blank assay was used for double referencing the sensorgrams corresponding to the analyte injections. The dissociation and association phase sensorgrams were fitted separately for the 4 different concentration curves. Sensorgrams were excluded from the fitting if maximum RU values reached were below the detection limit of the equipment (<5 RU), Biacore 3000 (Biacore AB).

[5] = biological target: T2, biotinylated native human ApoC3; test: SPR, IgG1 over biotinylated ApoC3 on SA chip, pH 5.5
Method: as §2, §3

[6] = biological target: T2, biotinylated native human ApoC3; test: SPR, IgG1 over biotinylated ApoC3 on SA chip, pH 7.4
Method: as §2, §3

[7] = biological target: T1, native human ApoC3; test: SPR, ApoC3 over captured IgG1
Method: as §4, §5

[8] = biological target: T1, native human ApoC3; test: SPR, ApoC3 over captured IgG1, pH 5.5
Method: as §4, §5

T1 sequence (P02656 21-99): as above

koff [1]	kon [1]	koff [2]	kon [2]	KD pH5.5/KD pH7.4 [3]	Ka [4]	koff [4]	kon [4]	Ka [5]	koff [5]	kon [5]	Ka [6]	Kd [6]	koff [6]	kon [6]	KD (nM) pH5.5/pH7.4 [7]	Kd [5]	Ka [8]	koff [8]	kon [8]	Binder	further results
0.00316 s⁻¹	156000 M⁻¹ s⁻¹	0.000305 s⁻¹	61600 M⁻¹ s⁻¹	–	–	–	–	–	–	–	–	–	–	–	–	–	–	–	–	5E5VH5VH12_VLWT human IgG1 (antibody, V domains shown) VH: QLQLVESGGGLVQPGGSLRLSCAASGFTFGTYSMRWVRQVPRKALEWVSSIHTDGGGTAYRDSVKGRFTISRDNAKNTLYLQMNNLKPEDTAIYYCVIHGYSDWGQGTQVTVSS VL: ATMLTQSPGSLSVVPGESASISCKTSQGLVHSDGKTYFYWFLQKPGQSPQQLIYQVSNRASGVPDRFTGSGSGTDFTLKISGVKAEDAGVYYCAQGTYYPHTFGSGTRLEIK	–
4.06e-05 s⁻¹	731000 M⁻¹ s⁻¹	2.84e-05 s⁻¹	782000 M⁻¹ s⁻¹	–	–	–	–	–	–	–	–	–	–	–	–	–	–	–	–	5E5VHWT_VL8 human IgG1 (antibody, V domains shown) VH: QLQLVESGGGLVQPGGSLRLSCAASGFTFGTYSMRWVRQVPRKALEWVSSISTDGGGTAYRDSVKGRFTISRDNAKNTLYLQMNNLKPEDTAIYYCVIAGYSDWGQGTQVTVSS VL: ATMLTQSPGSLSVVPGESASISCKTSQGLVHSDGKTYFYWFLQKPGQSPQQLIYQVSNRASGVPDRFTGSGSGTDFTLKISGVKAEDAGVYYCAHGTYYPHTFGSGTRLEIK	–
0.000203 s⁻¹	155000 M⁻¹ s⁻¹	3.77e-05 s⁻¹	178000 M⁻¹ s⁻¹	–	–	–	–	–	–	–	–	–	–	–	–	–	–	–	–	5E5VH5_VLWT human IgG1 (antibody, V domains shown) VH: QLQLVESGGGLVQPGGSLRLSCAASGFTFGTYSMRWVRQVPRKALEWVSSIHTDGGGTAYRDSVKGRFTISRDNAKNTLYLQMNNLKPEDTAIYYCVIAGYSDWGQGTQVTVSS VL: ATMLTQSPGSLSVVPGESASISCKTSQGLVHSDGKTYFYWFLQKPGQSPQQLIYQVSNRASGVPDRFTGSGSGTDFTLKISGVKAEDAGVYYCAQGTYYPHTFGSGTRLEIK	–
0.00242 s⁻¹	211000 M⁻¹ s⁻¹	0.000173 s⁻¹	177000 M⁻¹ s⁻¹	11.7	3.35e+06 M⁻¹	0.0127 s⁻¹	42700 M⁻¹ s⁻¹	8.74e+07 M⁻¹	0.00242 s⁻¹	211000 M⁻¹ s⁻¹	1.03e+09 M⁻¹	0.98 nM	0.000173 s⁻¹	177000 M⁻¹ s⁻¹	–	–	–	–	–	5E5VH5_VL8 human IgG1 (antibody, V domains shown, Tested as human IgG1; the tested lot is not tied to them in words) VH: QLQLVESGGGLVQPGGSLRLSCAASGFTFGTYSMRWVRQVPRKALEWVSSIHTDGGGTAYRDSVKGRFTISRDNAKNTLYLQMNNLKPEDTAIYYCVIAGYSDWGQGTQVTVSS VL: ATMLTQSPGSLSVVPGESASISCKTSQGLVHSDGKTYFYWFLQKPGQSPQQLIYQVSNRASGVPDRFTGSGSGTDFTLKISGVKAEDAGVYYCAHGTYYPHTFGSGTRLEIK	–
0.00165 s⁻¹	188000 M⁻¹ s⁻¹	0.000163 s⁻¹	267000 M⁻¹ s⁻¹	–	–	–	–	–	–	–	–	–	–	–	–	–	–	–	–	5E5VH12_VL8 human IgG1 (antibody, V domains shown, Tested as human IgG1) VH: QLQLVESGGGLVQPGGSLRLSCAASGFTFGTYSMRWVRQVPRKALEWVSSISTDGGGTAYRDSVKGRFTISRDNAKNTLYLQMNNLKPEDTAIYYCVIHGYSDWGQGTQVTVSS VL: ATMLTQSPGSLSVVPGESASISCKTSQGLVHSDGKTYFYWFLQKPGQSPQQLIYQVSNRASGVPDRFTGSGSGTDFTLKISGVKAEDAGVYYCAHGTYYPHTFGSGTRLEIK	–
–	–	–	–	1.91	7.73e+06 M⁻¹	0.00523 s⁻¹	40400 M⁻¹ s⁻¹	3.02e+09 M⁻¹	0.000147 s⁻¹	445000 M⁻¹ s⁻¹	5.77e+09 M⁻¹	0.17 nM	3.8e-05 s⁻¹	219000 M⁻¹ s⁻¹	3.9	0.33 nM	1.99e+06 M⁻¹	0.0405 s⁻¹	80500 M⁻¹ s⁻¹	mAb11 (antibody, IgG1, V domains shown, Produced as full length IgG1 (kappa) in ExpiCHO-S cells; also called humanized anti-ApoC3 antibody mAb11) VH: QLVESGGGLVQPGGSLRLSCAASGFTFSTYSMRWVRQVPGKGLEWVSSIHTEGGGTAYRDSVKGRFTISRDNAKNTLYLQMNNLRAEDTAVYYCVIAGYSDWGQGTLVTVSS VL: DIVMTQSPLSLSVTPGEPASISCKTSQGLVHSDGKTYFYWFLQKPGQSPQQLIYQVSNRASGVPDRFSGSGSGTDFTLKISRVEAEDVGVYYCAHGTYYPHTFGQGTRLEIK	–
–	–	–	–	2.12	3.12e+06 M⁻¹	0.00655 s⁻¹	20400 M⁻¹ s⁻¹	7.18e+09 M⁻¹	6.73e-05 s⁻¹	483000 M⁻¹ s⁻¹	1.53e+10 M⁻¹	0.07 nM	1.49e-05 s⁻¹	228000 M⁻¹ s⁻¹	1.07	0.14 nM	2.91e+06 M⁻¹	0.0251 s⁻¹	73200 M⁻¹ s⁻¹	mAb12 (antibody, IgG1, V domains shown, Produced as full length IgG1 (kappa) in ExpiCHO-S cells; also called humanized anti-ApoC3 antibody mAb12) VH: QLVESGGGLVQPGGSLRLSCAASGFTFSTYSMRWVRQVPGKGLEWVSSIHTDAGGTAYRDSVKGRFTISRDNAKNTLYLQMNSLRPEDTAIYYCVIAGYSDWGQGTLVTVSS VL: DIVMTQSPLSLSVTPGEPASISCKTSQGLVHSDGKTYFYWFLQKPGQSPQQLIYQVSNRASGVPDRFTGSGSGTDFTLKISRVKAEDVGVYYCAHGTYYPHTFGQGTRLEIK	–
–	–	–	–	9.21	2.82e+07 M⁻¹	0.00463 s⁻¹	130000 M⁻¹ s⁻¹	2.4e+09 M⁻¹	0.000296 s⁻¹	710000 M⁻¹ s⁻¹	2.21e+10 M⁻¹	0.05 nM	2.9e-05 s⁻¹	640000 M⁻¹ s⁻¹	4.42	0.42 nM	6.37e+06 M⁻¹	0.0198 s⁻¹	127000 M⁻¹ s⁻¹	mAb19 (antibody, IgG1, V domains shown, Produced as full length IgG1 (kappa) in ExpiCHO-S cells; also called humanized anti-ApoC3 antibody mAb19) VH: QLVESGGGLVQPGGSLRLSCAASGFTFSTYSMRWVRQAPGKGLEWVSSIHTDAGGTAYRDSVKGRFTISRDNAKNTLYLQMNNLRPEDTAVYYCVIAGYSDWGQGTLVTVSS VL: DIVMTQSPGSLSVTPGEPASISCKTSQGLVHSGGKTYFYWFLQKPGQSPQQLIYQVSNRASGVPDRFTGSGSGTDFTLKISGVEAEDAGVYYCAQGTYYPHTFGQGTRLEIK	Kd [4]: 36 nM
–	–	–	–	7.37	1.6e+07 M⁻¹	0.00616 s⁻¹	98700 M⁻¹ s⁻¹	2.92e+09 M⁻¹	0.000276 s⁻¹	806000 M⁻¹ s⁻¹	2.15e+10 M⁻¹	0.05 nM	2.33e-05 s⁻¹	503000 M⁻¹ s⁻¹	4.12	0.34 nM	3.89e+06 M⁻¹	0.0217 s⁻¹	84500 M⁻¹ s⁻¹	mAb17 (antibody, IgG1, V domains shown, Produced as full length IgG1 (kappa) in ExpiCHO-S cells; also called humanized anti-ApoC3 antibody mAb17) VH: QLVESGGGLVQPGGSLRLSCAASGFTFSTYSMRWVRQAPGKGLEWVSSIHTEAGGTAYRDSVKGRFTISRDNAKNTLYLQMNNLRAEDTAVYYCVIAGYSDWGQGTLVTVSS VL: DIVMTQSPLSLPVTPGEPASISCKTSQGLVHSGGKTYFYWFLQKPGQSPQQLIYQVSNRASGVPDRFTGSGSGTDFTLKISRVEAEDAGVYYCAQGTYYPHTFGQGTRLEIK	Kd [4]: 62 nM
